Laboratory results: patent US20210253738A1 (UNITED STATES OF AMERICA AS REPRESENTED BY THE SECRETARY …, published 2021)

How the values were obtained:
[1] = target: T1, limulus polyphemus hemocyanin II (LPH) (Limulus polyphemus, UniProt P04253 1-628, limits assumed); experiment: indirect EIA, compounds coated on microtiter plates, clonal supernatant, goat anti-mouse IgG HRP detection
T1 construct: Unconjugated carrier protein used as a screening control; also called carrier protein
T1 sequence (looked up): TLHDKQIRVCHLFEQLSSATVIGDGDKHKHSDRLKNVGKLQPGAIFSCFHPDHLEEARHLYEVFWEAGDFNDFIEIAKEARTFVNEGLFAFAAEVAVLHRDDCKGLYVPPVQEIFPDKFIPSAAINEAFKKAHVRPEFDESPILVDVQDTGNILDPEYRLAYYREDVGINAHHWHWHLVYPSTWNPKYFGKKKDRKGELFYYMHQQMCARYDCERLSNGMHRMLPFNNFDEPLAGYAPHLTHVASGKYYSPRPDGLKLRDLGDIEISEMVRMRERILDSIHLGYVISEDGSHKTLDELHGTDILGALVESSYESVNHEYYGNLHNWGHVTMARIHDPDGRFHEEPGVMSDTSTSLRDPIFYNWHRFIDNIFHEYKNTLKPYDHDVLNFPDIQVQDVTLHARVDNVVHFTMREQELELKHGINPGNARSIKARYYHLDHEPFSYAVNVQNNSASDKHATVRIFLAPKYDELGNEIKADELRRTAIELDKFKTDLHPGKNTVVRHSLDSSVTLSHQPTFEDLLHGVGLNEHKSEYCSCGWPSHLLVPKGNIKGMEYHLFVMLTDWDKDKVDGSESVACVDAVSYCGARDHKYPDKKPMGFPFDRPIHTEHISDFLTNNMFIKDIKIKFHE
Method: (§1) An assay was developed to screen the Mabs for reactivity to the FTC conjugates. Microtiter plates were coated with the following reagents: FTC-peptide-dextran, FTC-peptide, FTC-peptide-LPH, FTC-peptide-BSA, FTC heptanoic acid, peptide only, peptide-LPH, peptide-BSA, BSA, LPH, and normal mouse serum (NMS). All compounds were diluted into sodium bicarbonate buffer, pH 9.6, to a concentration of 5 ug/ml; NMS was diluted 1:15. One hundred microliters of each solution was added to a column of the microtiter plate such that each row of the plate allowed the testing of a single clonal supernatant against all of the compounds in a single run. Plates were incubated at 4° C. overnight and then washed 3× with phosphate-buffered saline (PBS) containing 0.05% Tween 20 (PBS-T). Plates were blocked with PBS containing 0.5% nonfat dry milk for 1 hour at 37° C., washed 3×, and dried at 37° C. for 30 minutes. Prepared plates were covered with an adhesive seal, placed into a moisture resistant bag, and stored in a dessicant chamber at 20-24° C. until use.

[2] = target: T2, bovine serum albumin (BSA) (bovine, UniProt P02769 25-607); experiment: as above
T2 construct: Unconjugated carrier protein used as a screening control; also called carrier protein
T2 sequence (P02769 25-607 limits assumed): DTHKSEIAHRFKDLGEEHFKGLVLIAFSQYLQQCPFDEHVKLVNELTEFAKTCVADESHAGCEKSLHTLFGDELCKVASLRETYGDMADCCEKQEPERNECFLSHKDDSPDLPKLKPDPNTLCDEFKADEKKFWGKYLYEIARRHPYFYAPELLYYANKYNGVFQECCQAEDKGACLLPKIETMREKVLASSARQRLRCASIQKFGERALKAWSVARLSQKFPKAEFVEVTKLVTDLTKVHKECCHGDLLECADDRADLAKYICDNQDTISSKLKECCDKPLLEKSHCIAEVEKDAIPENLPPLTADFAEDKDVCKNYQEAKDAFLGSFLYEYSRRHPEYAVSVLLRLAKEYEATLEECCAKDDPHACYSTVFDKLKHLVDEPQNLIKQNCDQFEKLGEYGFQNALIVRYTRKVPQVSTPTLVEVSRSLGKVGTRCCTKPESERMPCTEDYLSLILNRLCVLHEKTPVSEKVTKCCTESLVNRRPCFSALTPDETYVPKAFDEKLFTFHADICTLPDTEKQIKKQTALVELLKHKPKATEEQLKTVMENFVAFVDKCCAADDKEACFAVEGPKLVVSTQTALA
Method: as §1

B1: 5D2 monoclonal antibody (antibody, mouse IgG2b, kappa, V domains shown)
VH: QVQLQQPGAELVKPGASVKVSCKASGYTFTSYWMHWVKQRPGQGLEWIGRIHLSDSDTNYNQNFKDKATLTVDKSSRTAHMHLSSLTSADSAVYYCAMGGTFQSNYDTYWGQGTLVTVSA
VL: DIQMTQSPASLSASVGETVTITCRASGNIHNYLAWYQQKQGKSPQLLVYNAKTLTDGVPSRFSGSGSGTQYSLKINSLQPEDFGNYYCQHFLYTPYTFGGGTKLEMRR
notes: Mouse IgG2b, kappa, raised against the small molecule emtricitabine (FTC); In the lateral flow assay the antibody was conjugated to gold; also called Mab 5D2; FTC (5D2) monoclonal antibody
Question: What does the source list for B1?
Answer: binding result [1]: no binding (tested: 5 ug/ml (coating concentration)); binding result [2]: no binding (tested: 5 ug/ml (coating concentration))
